Measurements from the supplement of paper PMC5998384.

What was measured:
HeLa Kyoto [1] = assay: solubility change mitosis vs G1/S (difference of NP-40 vs SDS log2 ratios) (log2 ratio difference); higher = more soluble in mitosis
HeLa Kyoto [2] = assay: solubility in G1/S (NP-40 vs SDS abundance) (log2 ratio); higher = more soluble; settings: cell cycle stage: G1/S
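For solubility change mitosis vs G1/S (difference of NP-40 vs SDS log2 ratios) in this document: synchronized HeLa Kyoto cells (double thymidine block for G1/S, nocodazole release for mitosis), protein amounts in NP-40 versus SDS lysates quantified by mass spectrometry, three biological replicates.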
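For solubility in G1/S (NP-40 vs SDS abundance) in this document: HeLa Kyoto cells arrested at G1/S by double thymidine block, proteins quantified by TMT10plex mass spectrometry in mild NP-40 versus SDS extracts, three biological replicates.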

Sequence | solubility change mitosis (log2) (HeLa Kyoto [1]) | solubility in G1/S (log2) (HeLa Kyoto [2])
MRTEAEAAGPPLEPGDFVQLPVPVIQQLYHWDCGLACSRMVLRYLGQLDDSEFERALQKLQLTRSIWTIDLAYLMHHFGVRHRFCTQTLGVDKGYKNQSFYRKHFDTEETRVNQLFAQAKACKVLVEKCTVSVKDIQAHLAQGHVAIVLVNSGVLHCDLCSSPVKYCCFTPSGHHCFCRTPDYQGHFIVLRGYNRATGCIFYNNPAYADPGMCSTSISNFEEARTSYGTDEDILFVYLDS [GUCD1] | -0.00182 | -0.455
MSCTIEKALADAKALVERLRDHDDAAESLIEQTTALNKRVEAMKQYQEEIQELNEVARHRPRSTLVMGIQQENRQIRELQQENKELRTSLEEHQSALELIMSKYREQMFRLLMASKKDDPGIIMKLKEQHSKIDMVHRNKSEGFFLDASRHILEAPQHGLERRHLEANQNELQAHVDQITEMAAVMRKAIEIDEQQGCKEQERIFQLEQENKGLREILQITRESFLNLRKDDASESTSLSALVTNSDLSLRKS [FGFR1OP2] | 0.0581 | 0.209
MSDRKAVIKNADMSEDMQQDAVDCATQAMEKYNIEKDIAAYIKKEFDKKYNPTWHCIVGRNFGSYVTHETKHFIYFYLGQVAILLFKSG [DYNLL2] | 0.249 | -0.415
MSEARGEPGSGPEAGARFFCTAGRGLEPFVMREVRARLAATQVEYISGKVFFTTCSDLNMLKKLKSAERLFLLIKKQFPLIISSVSKGKIFNEMQRLINEDPGSWLNAISIWKNLLELDAKKEKLSQRDDNQLKRKVGENEIIAKKLKIEQMQKIEENRDCQLEKQIKEETLEQRDFTTKSEKFQEEEFQNDIEKAIDTHNQNDLTFRVSCRCSGTIGKAFTAQEVGKVIGIAIMKHFGWKADLRNPQLEIFIHLNDIYSVVGIPVFRVSLASRAYIKTAGLRSTIAWAMASLADIKAGAFVLDPMCGLGTILLEAAKEWPDVYYVGADVSDSQLLGTWDNLKAAGLEDKIELLKISVIELPLPSESVDIIISDIPFGKKFKLGKDIKSILQEMERVLHVGGTIVLLLSEDHHRRLTDCKESNIPFNSKDSHTDEPGIKKCLNPEEKTGAFKTASTSFEASNHKFLDRMSPFGSLVPVECYKVSLGKTDAFICKYKKSHSSGL [THUMPD2] | -0.134 | 0.0337
MSFLFSSRSSKTFKPKKNIPEGSHQYELLKHAEATLGSGNLRQAVMLPEGEDLNEWIAVNTVDFFNQINMLYGTITEFCTEASCPVMSAGPRYEYHWADGTNIKKPIKCSAPKYIDYLMTWVQDQLDDETLFPSKIGVPFPKNFMSVAKTILKRLFRVYAHIYHQHFDSVMQLQEEAHLNTSFKHFIFFVQEFNLIDRRELAPLQELIEKLGSKDR [MOB1A] | -0.11 | 0.448
MSGGGTETPVGCEAAPGGGSKKRDSLGTAGSAHLIIKDLGEIHSRLLDHRPVIQGETRYFVKEFEEKRGLREMRVLENLKNMIHETNEHTLPKCRDTMRDSLSQVLQRLQAANDSVCRLQQREQERKKIHSDHLVASEKQHMLQWDNFMKEQPNKRAEVDEEHRKAMERLKEQYAEMEKDLAKFSTF [BLOC1S5] | -0.0624 | 0.438
MSGRSVRAETRSRAKDDIKKVMAAIEKVRKWEKKWVTVGDTSLRIFKWVPVTDSKEKEKSKSNSSAAREPNGFPSDASANSSLLLEFQDENSNQSSVSDVYQLKVDSSTNSSPSPQQSESLSPAHTSDFRTDDSQPPTLGQEILEEPSLPSSEVADEPPTLTKEEPVPLETQVVEEEEDSGAPPLKRFCVDQPTVPQTASES [BCL7B] | 0.0126 | 0.295
MSGTSKESLGHGGLPGLGKTCLTTMDTKLNMLNEKVDQLLHFQEDVTEKLQSMCRDMGHLERGLHRLEASRAPGPGGADGVPHIDTQAGWPEVLELVRAMQQDAAQHGARLEALFRMVAAVDRAIALVGATFQKSKVADFLMQGRVPWRRGSPGDSPEENKERVEEEGGKPKHVLSTSGVQSDAREPGEESQKADVLEGTAERLPPIRASGLGADPAQAVVSPGQGDGVPGPAQAFPGHLPLPTKVEAKAPETPSENLRTGLELAPAPGRVNVVSPSLEVAPGAGQGASSSRPDPEPLEEGTRLTPGPGPQCPGPPGLPAQARATHSGGETPPRISIHIQEMDTPGEMLMTGRGSLGPTLTTEAPAAAQPGKQGPPGTGRCLQAPGTEPGEQTPEGARELSPLQESSSPGGVKAEEEQRAGAEPGTRPSLARSDDNDHEVGALGLQQGKSPGAGNPEPEQDCAARAPVRAEAVRRMPPGAEAGSVVLDDSPAPPAPFEHRVVSVKETSISAGYEVCQHEVLGGGRFGQVHRCTEKSTGLPLAAKIIKVKSAKDREDVKNEINIMNQLSHVNLIQLYDAFESKHSCTLVMEYVDGGELFDRITDEKYHLTELDVVLFTRQICEGVHYLHQHYILHLDLKPENILCVNQTGHQIKIIDFGLARRYKPREKLKVNFGTPEFLAPEVVNYEFVSFPTDMWSVGVITYMLLSGLSPFLGETDAETMNFIVNCSWDFDADTFEGLSEEAKDFVSRLLVKEKSCRMSATQCLKHEWLNNLPAKASRSKTRLKSQLLLQKYIAQRKWKKHFYVVTAANRLRKFPTSP [MYLK3] | -0.0471 | -0.00349
MSKKKGLSAEEKRTRMMEIFSETKDVFQLKDLEKIAPKEKGITAMSVKEVLQSLVDDGMVDCERIGTSNYYWAFPSKALHARKHKLEVLESQLSEGSQKHASLQKSIEKAKIGRCETEERTRLAKELSSLRDQREQLKAEVEKYKDCDPQVVEEIRQANKVAKEAANRWTDNIFAIKSWAKRKFGFEENKIDRTFGIPEDFDYID [MND1] | -0.05 | 0.61
MSKLPRELTRDLERSLPAVASLGSSLSHSQSLSSHLLPPPEKRRAISDVRRTFCLFVTFDLLFISLLWIIELNTNTGIRKNLEQEIIQYNFKTSFFDIFVLAFFRFSGLLLGYAVLRLRHWWVIAVTTLVSSAFLIVKVILSELLSKGAFGYLLPIVSFVLAWLETWFLDFKVLPQEAEEERWYLAAQVAVARGPLLFSGALSEGQFYSPPESFAGSDNESDEEVAGKKSFSAQEREYIRQGKEATAVVDQILAQEENWKFEKNNEYGDTVYTIEVPFHGKTFILKTFLPCPAELVYQEVILQPERMVLWNKTVTACQILQRVEDNTLISYDVSAGAAGGVVSPRDFVNVRRIERRRDRYLSSGIATSHSAKPPTHKYVRGENGPGGFIVLKSASNPRVCTFVWILNTDLKGRLPRYLIHQSLAATMFEFAFHLRQRISELGARA [STARD3] | -0.178 | -0.0414
MSLALRSELVVDKTKRKKRRELSEEQKQEIKDAFELFDTDKDEAIDYHELKVAMRALGFDVKKADVLKILKDYDREATGKITFEDFNEVVTDWILERDPHEEILKAFKLFDDDDSGKISLRNLRRVARELGENMSDEELRAMIEEFDKDGDGEINQEEFIAIMTGDI [CETN3] | 0.0873 | 0.133
